Reference: PMC7689490 (Nature Communications, 2020)
[ ]: non-standard residue; d: D form. Fluos = fluorescein label; Ahx = NCCCCCC(=O)O

Biological target: T1, macrophage migration-inhibitory factor (MIF), recombinant human, unlabelled (human, UniProt P14174 1-115)
T1 construct: human MIF; For some biophysical methods a 90-95% pure preparation was used; also called WT-MIF; human MIF
T1 sequence (looked up): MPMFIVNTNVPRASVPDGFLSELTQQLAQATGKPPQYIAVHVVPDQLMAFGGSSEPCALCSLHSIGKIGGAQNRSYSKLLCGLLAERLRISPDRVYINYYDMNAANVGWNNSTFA
Experiment: other fluorescence titration; Fluos-labelled CXCR4 ectodomain peptide at 5 nM titrated with unlabelled MIF, MIF(10xAla), CXCL12 or MIF peptide fragments; 10 mM sodium phosphate, pH 7.4, 1% HFIP; emission at 522 nm; apparent KD, 1/1 binding model
Details: both partners purified

B1: Fluos-[A^102, A^103, A^104, A^107, A^189, A^190, A^195]-msR4M-L1 (designed binder)
chain: Fluos-DAVANAAAGNALCK[Ahx][Ado]DRYICDRAAPNDLAV-NH2
modifications: cysteine pairing not given here
notes: The functional assays used the unlabelled peptide; also called Fluos-msR4M-L1(7xAla); source: synthetic peptide (Fmoc SPPS on Rink amide MBHA resin, RP-HPLC purified)
With B1 the Kd was over 1000 nM.
